Biological target: MYC-tagged FTL wild type, P02792
Experiment: co-IP; HeLa-FTH1 KO cells; anti-MYC IP of MYC-FTH1/FTL, immunoblot; 50 mM Tris-HCl pH 7.5, 150 mM NaCl, 0.5% Nonidet P40, 1 mM DTT; quantified relative to FTH1-WT, normalized to immunoprecipitated FTH1/FTL and NCOA4 input
Settings: remark: other sources report otherwise

Sequence of MYC-tagged FTL wild type, P02792 (P02792 whole entry): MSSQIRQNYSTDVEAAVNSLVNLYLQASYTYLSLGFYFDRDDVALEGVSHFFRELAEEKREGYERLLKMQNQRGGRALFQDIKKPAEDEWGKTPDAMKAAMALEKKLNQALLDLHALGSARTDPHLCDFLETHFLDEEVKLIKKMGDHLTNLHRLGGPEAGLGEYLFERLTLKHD

relative interaction by immunoprecipitation (% of FTH1-WT): 14%
B1: C-terminally HA-FLAG-tagged NCOA4, Q13772 1-614 (natural protein)
chain: MNTFQDQSGSSSNREPLLRCSDARRDLELAIGGVLRAEQQIKDNLREVKAQIHSCISRHLECLRSREVWLYEQVDLIYQLKEETLQQQAQQLYSLLGQFNCLTHQLECTQNKDLANQVSVCLERLGSLTLKPEDSTVLLFEADTITLRQTITTFGSLKTIQIPEHLMAHASSANIGPFLEKRGCISMPEQKSASGIVAVPFSEWLLGSKPASGYQAPYIPSTDPQDWLTQKQTLENSQTSSRACNFFNNVGGNLKGLENWLLKSEKSSYQKCNSHSTTSSFSIEMEKVGDQELPDQDEMDLSDWLVTPQESHKLRKPENGSRETSEKFKLLFQSYNVNDWLVKTDSCTNCQGNQPKGVEIENLGNLKCLNDHLEAKKPLSTPSMVTEDWLVQNHQDPCKVEEVCRANEPCTSFAECVCDENCEKEALYKWLLKKEGKDKNGMPVEPKPEPEKHKDSLNMWLCPRKEVIEQTKAPKAMTPSRIADSFQVIKNSPLSEWLIRPPYKEGSPKEVPGTEDRAGKQKFKSPMNTSWCSFNTADWVLPGKKMGNLSQLSSGEDKWLLRKKAQEVLLNSPLQEEHNFPPDHYGLPAVCDLFACMQLKVDKEKWLYRTPLQM
